From doi:10.1101/2022.11.07.515429 (bioRxiv, 2022)

Target: T1, Strep-PRP5 (human, UniProt Q7L014 1-1031)
T1 sequence: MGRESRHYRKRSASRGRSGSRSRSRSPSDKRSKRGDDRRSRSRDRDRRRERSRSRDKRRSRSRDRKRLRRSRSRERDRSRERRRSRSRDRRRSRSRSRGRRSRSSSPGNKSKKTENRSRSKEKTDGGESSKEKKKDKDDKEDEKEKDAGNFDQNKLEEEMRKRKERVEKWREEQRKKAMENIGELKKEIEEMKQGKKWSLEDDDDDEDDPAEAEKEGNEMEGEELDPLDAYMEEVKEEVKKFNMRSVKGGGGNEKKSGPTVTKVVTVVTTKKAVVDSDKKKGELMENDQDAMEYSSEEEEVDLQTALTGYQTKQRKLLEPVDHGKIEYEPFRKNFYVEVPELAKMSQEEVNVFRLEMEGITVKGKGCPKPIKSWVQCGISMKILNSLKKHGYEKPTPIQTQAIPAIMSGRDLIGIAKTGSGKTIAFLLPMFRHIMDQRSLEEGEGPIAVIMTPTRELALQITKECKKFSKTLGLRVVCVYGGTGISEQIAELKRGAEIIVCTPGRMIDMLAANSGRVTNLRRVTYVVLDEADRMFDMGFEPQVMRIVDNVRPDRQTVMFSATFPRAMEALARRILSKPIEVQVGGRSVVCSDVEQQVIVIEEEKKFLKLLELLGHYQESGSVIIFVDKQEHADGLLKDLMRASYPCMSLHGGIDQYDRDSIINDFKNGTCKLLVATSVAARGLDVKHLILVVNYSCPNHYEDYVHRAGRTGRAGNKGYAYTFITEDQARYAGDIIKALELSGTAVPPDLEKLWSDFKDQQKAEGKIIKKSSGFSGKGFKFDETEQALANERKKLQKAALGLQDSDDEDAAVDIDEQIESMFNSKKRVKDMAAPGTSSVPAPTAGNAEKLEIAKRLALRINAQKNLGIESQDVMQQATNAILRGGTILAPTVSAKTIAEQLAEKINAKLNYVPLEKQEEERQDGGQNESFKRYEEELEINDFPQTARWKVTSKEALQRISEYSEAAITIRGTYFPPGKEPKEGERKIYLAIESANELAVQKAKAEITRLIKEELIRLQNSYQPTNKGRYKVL
Assay: pull-down

relative binding ratio (pulldown over input, normalised to WT): 64 percent
B1: Flag-tagged SF3B1 K700E (natural protein, human, UniProt O75533 1-1304, looked up)
chain: MAKIAKTHEDIEAQIREIQGKKAALDEAQGVGLDSTGYYDQEIYGGSDSRFAGYVTSIAATELEDDDDDYSSSTSLLGQKKPGYHAPVALLNDIPQSTEQYDPFAEHRPPKIADREDEYKKHRRTMIISPERLDPFADGGKTPDPKMNARTYMDVMREQHLTKEEREIRQQLAEKAKAGELKVVNGAAASQPPSKRKRRWDQTADQTPGATPKKLSSWDQAETPGHTPSLRWDETPGRAKGSETPGATPGSKIWDPTPSHTPAGAATPGRGDTPGHATPGHGGATSSARKNRWDETPKTERDTPGHGSGWAETPRTDRGGDSIGETPTPGASKRKSRWDETPASQMGGSTPVLTPGKTPIGTPAMNMATPTPGHIMSMTPEQLQAWRWEREIDERNRPLSDEELDAMFPEGYKVLPPPAGYVPIRTPARKLTATPTPLGGMTGFHMQTEDRTMKSVNDQPSGNLPFLKPDDIQYFDKLLVDVDESTLSPEEQKERKIMKLLLKIKNGTPPMRKAALRQITDKAREFGAGPLFNQILPLLMSPTLEDQERHLLVKVIDRILYKLDDLVRPYVHKILVVIEPLLIDEDYYARVEGREIISNLAKAAGLATMISTMRPDIDNMDEYVRNTTARAFAVVASALGIPSLLPFLKAVCKSKKSWQARHTGIKIVQQIAILMGCAILPHLRSLVEIIEHGLVDEQQEVRTISALAIAALAEAATPYGIESFDSVLKPLWKGIRQHRGKGLAAFLKAIGYLIPLMDAEYANYYTREVMLILIREFQSPDEEMKKIVLKVVKQCCGTDGVEANYIKTEILPPFFKHFWQHRMALDRRNYRQLVDTTVELANKVGAAEIISRIVDDLKDEAEQYRKMVMETIEKIMGNLGAADIDHKLEEQLIDGILYAFQEQTTEDSVMLNGFGTVVNALGKRVKPYLPQICGTVLWRLNNKSAKVRQQAADLISRTAVVMKTCQEEKLMGHLGVVLYEYLGEEYPEVLGSILGALKAIVNVIGMHKMTPPIKDLLPRLTPILKNRHEKVQENCIDLVGRIADRGAEYVSAREWMRICFELLELLKAHKKAIRRATVNTFGYIAKAIGPHDVLATLLNNLKVQERQNRVCTTVAIAIVAETCSPFTVLPALMNEYRVPELNVQNGVLKSLSFLFEYIGEMGKDYIYAVTPLLEDALMDRDLVHRQTASAVVQHMSLGVYGFGCEDSLNHLLNYVWPNVFETSPHVIQAVMGALEGLRVAIGPCRMLQYCLQGLFHPARKVRDVYWKIYNSIYIGSQDALIAHYPRIYNDDKNTYIRYELDYIL
